According to paper doi:10.1101/2024.04.19.590298 (bioRxiv, 2024):

Experiments:
[1] = molecular target: T1, recombinant SARS-CoV-2 nucleocapsid protein (SARS-CoV-2 (reference sequence …, UniProt P0DTC9)); assay: ELISA; peptide competition ELISA: plate coated with 0.1 ug/ml recombinant NP overnight at 4°C; 40 μL mBG17 pre-incubated 1 h at room temperature with 40 μg (approximately 30 nMol) of a single peptide, then applied to the plate 1 h at room temperature; goat anti-mouse HRP, A450; triplicate; details: both partners purified
T1 construct: SARS-CoV-2 nucleocapsid protein; also called NP; SARS-CoV-2 NP

[2] = molecular target: T2, Nucleocapsid a. a. 401–410 (Frag 5) (SARS-CoV-2 (YP_009724397 reference)); assay: as above; details: both partners purified
T2 construct: SARS-CoV-2 nucleocapsid protein, residues 401-410; also called Fragment 5; WT (a.a. 401–410) peptide; source: synthetic peptide (Thermo Scientific)
T2 chain: DDFSKQLQQS

B1: anti-SARS-CoV-2 nucleocapsid protein (NP) monoclonal mouse antibody mBG17 (recombinant) (antibody, V domains shown)
VH: EVKLEESGGGLVQPGGSMKFSCVASGFTFSDYWMNWVRQSPDKGLEWVAEIRLKSNNYATHYAASVKGRFTISRDDSKSSVYLQMNNLRAEDSGIYYCTRSAMDYWGQGTSVTVSS
VL: DIVMSQSPSSLAVSVGEKITMSCKSSQSLLYTSDQKNYLAWFQQKPGQSPKLLIFWASTRDSGVPDRFTGSGSGTDFTLTISSVKAEDLAVYYCQQFYNYPRTFGGGTKLEIK
notes: Whole antibody, detected with goat anti-mouse HRP; The scFv forms were used in calculations only; also called recombinant mBG17
- binding result [1]: binds
- binding result [2]: binds
